Experimental data: PMC8433531 (Proceedings of the National Academy of Sciences of the …, 2021)

Tests used:
[1] = test system: SARS-CoV-2; assay type: cell-based
[2] = test system: SARS-CoV-2; assay type: cell-based; remark: listed apart in the source
[3] = test system: SARS-CoV-2; test: Hit validation across cell systems; assay type: cell-based; conditions: Huh7, LNCaP, Caco-2, Vero E6, iAEC2
[4] = test system: SARS-CoV-2; assay type: cell-based; remark: listed apart in the source
[5] = test system: SARS-CoV-2; test: microbe, parasite or virus in culture; assay type: cell-based
[6] = test system: IFNβ and interferon-stimulated gene transcripts; assay type: cell-based, human; conditions: virus-infected Huh7, MOI 0.2, 48 h, 6250 nM

B1: Human Lactoferrin: native human lactoferrin (Creative BioMart; LFT-8196H) (protein, UniProt P02788 20-710, looked up)
Lactotransferrin: GRRRSVQWCAVSQPEATKCFQWQRNMRKVRGPPVSCIKRDSPIQCIQAIAENRADAVTLDGGFIYEAGLAPYKLRPVAAEVYGTERQPRTHYYAVAVVKKGGSFQLNELQGLKSCHTGLRRTAGWNVPIGTLRPFLNWTGPPEPIEAAVARFFSASCVPGADKGQFPNLCRLCAGTGENKCAFSSQEPYFSYSGAFKCLRDGAGDVAFIRESTVFEDLSDEAERDEYELLCPDNTRKPVDKFKDCHLARVPSHAVVARSVNGKEDAIWNLLRQAQEKFGKDKSPKFQLFGSPSGQKDLLFKDSAIGFSRVPPRIDSGLYLGSGYFTAIQNLRKSEEEVAARRARVVWCAVGEQELRKCNQWSGLSEGSVTCSSASTTEDCIALVLKGEADAMSLDGGYVYTAGKCGLVPVLAENYKSQQSSDPDPNCVDRPVEGYLAVAVVRRSDTSLTWNSVKGKKSCHTAVDRTAGWNIPMGLLFNQTGSCKFDEYFSQSCAPGSDPRSNLCALCIGDEQGENKCVPNSNERYYGYTGAFRCLAENAGDVAFVKDVTVLQNTDGNNNEAWAKDLKLADFALLCLDGKRKPVTEARSCHLAMAPNHAVVSRMDKVERLKQVLLHQQAKFGRNGSDCPDKFCLFQSETKNLLFNDNTECLARLHGKTTYEKYLGPQYVAGITNLKKCSTSPLLEACEFLRK
**Q.** Which “antiviral activity at high MOI” value [1] does the source give for B1 here?
**A.** retained antiviral activity

B2: Lactoferrin (protein, UniProt P24627 20-708, looked up)
Lactotransferrin: APRKNVRWCTISQPEWFKCRRWQWRMKKLGAPSITCVRRAFALECIRAIAEKKADAVTLDGGMVFEAGRDPYKLRPVAAEIYGTKESPQTHYYAVAVVKKGSNFQLDQLQGRKSCHTGLGRSAGWIIPMGILRPYLSWTESLEPLQGAVAKFFSASCVPCIDRQAYPNLCQLCKGEGENQCACSSREPYFGYSGAFKCLQDGAGDVAFVKETTVFENLPEKADRDQYELLCLNNSRAPVDAFKECHLAQVPSHAVVARSVDGKEDLIWKLLSKAQEKFGKNKSRSFQLFGSPPGQRDLLFKDSALGFLRIPSKVDSALYLGSRYLTTLKNLRETAEEVKARYTRVVWCAVGPEEQKKCQQWSQQSGQNVTCATASTTDDCIVLVLKGEADALNLDGGYIYTAGKCGLVPVLAENRKSSKHSSLDCVLRPTEGYLAVAVVKKANEGLTWNSLKDKKSCHTAVDRTAGWNIPMGLIVNQTGSCAFDEFFSQSCAPGADPKSRLCALCAGDDQGLDKCVPNSKEKYYGYTGAFRCLAEDVGDVAFVKNDTVWENTNGESTADWAKNLNREDFRLLCLDGTRKPVTEAQSCHLAVAPNHAVVSRSDRAAHVKQVLLHQQALFGKNGKNCPDKFCLFKSETKNLLFNDNTECLAKLGGRPTYEEYLGTEYVTAIANLKKCSTSPLLEACAFLTR
modifications: iron-free apo form
**Q.** B2 was tested. Which “antiviral activity through a range of MOIs” value [2] did it give?
**A.** retained antiviral activity

**Q.** And the “antiviral activity when added after infection” value [2]?
**A.** maintained antiviral activity

**Q.** What about the “antiviral activity at high MOI” value [1] of the same molecule?
**A.** retained antiviral activity

**Q.** What about the “antiviral activity against SARS-CoV-2 in iAECs” value ([1]; iAEC2) of the same molecule?
**A.** dose-responsive antiviral activity

**Q.** What about the “efficacy across all tested cell systems” value [3] of the same molecule?
**A.** maintained efficacy across all tested cell systems

**Q.** What about the “viral replication (viral RNA by RT-qPCR)” value [4] of the same molecule?
**A.** dose-dependent inhibition of viral replication

**Q.** What about the IC50 [5] of the same molecule?
**A.** 440 nM

**Q.** And the “IFNβ and interferon-stimulated gene transcripts” value [6]?
**A.** up-regulation

B3: hololactoferrin: iron-saturated hololactoferrin (Sigma-Aldrich; L4765) (protein, UniProt P24627 20-708, looked up)
Lactotransferrin: B2 Lactotransferrin
modifications: iron-saturated
**Q.** B3 was tested. Which “antiviral activity (iron chelation control)” value ([2]; Huh7, 6,250 nM) did it give?
**A.** retained activity
